Positions count from the first letter of the chain named.
Experiments:
[1] = target: ciDicer (catalytically inactive human Dicer) D1320A;D1709A (Homo sapiens) (UniProt Q9UPY3); assay: EMSA; conditions: 5'-monophosphate; 3'-OH; EMSA: 50 mM Tris pH 7.6, 50 mM NaCl, 10% glycerol, 0.05% NP-40, 2 mM DTT, 4 °C, 30 min, 2 pM 32P-RNA; 4-15% native PAGE in …; RNA heated 95 °C and sn
[2] = target: T1, ciDicer (catalytically inactive human Dicer) (Homo sapiens, UniProt Q9UPY3 1-1922, D1320A;D1709A); assay: EMSA; range over five mono-U RNAs; individual value only in figure; EMSA: 50 mM Tris pH 7.6, 50 mM NaCl, 10% glycerol, 0.05% NP-40, 2 mM DTT, 4 °C, 30 min, 2 pM 32P-RNA; 4-15% native PAGE in Tris-glycine; RNA heated 95 °C and snap-cooled; no Mg2+ added to DB buffer; conditions: protein: recombinant; label: 5'-32P; hairpin, 2-nt 3' overhang
T1 sequence (Q9UPY3 whole entry D1320A/D1709A): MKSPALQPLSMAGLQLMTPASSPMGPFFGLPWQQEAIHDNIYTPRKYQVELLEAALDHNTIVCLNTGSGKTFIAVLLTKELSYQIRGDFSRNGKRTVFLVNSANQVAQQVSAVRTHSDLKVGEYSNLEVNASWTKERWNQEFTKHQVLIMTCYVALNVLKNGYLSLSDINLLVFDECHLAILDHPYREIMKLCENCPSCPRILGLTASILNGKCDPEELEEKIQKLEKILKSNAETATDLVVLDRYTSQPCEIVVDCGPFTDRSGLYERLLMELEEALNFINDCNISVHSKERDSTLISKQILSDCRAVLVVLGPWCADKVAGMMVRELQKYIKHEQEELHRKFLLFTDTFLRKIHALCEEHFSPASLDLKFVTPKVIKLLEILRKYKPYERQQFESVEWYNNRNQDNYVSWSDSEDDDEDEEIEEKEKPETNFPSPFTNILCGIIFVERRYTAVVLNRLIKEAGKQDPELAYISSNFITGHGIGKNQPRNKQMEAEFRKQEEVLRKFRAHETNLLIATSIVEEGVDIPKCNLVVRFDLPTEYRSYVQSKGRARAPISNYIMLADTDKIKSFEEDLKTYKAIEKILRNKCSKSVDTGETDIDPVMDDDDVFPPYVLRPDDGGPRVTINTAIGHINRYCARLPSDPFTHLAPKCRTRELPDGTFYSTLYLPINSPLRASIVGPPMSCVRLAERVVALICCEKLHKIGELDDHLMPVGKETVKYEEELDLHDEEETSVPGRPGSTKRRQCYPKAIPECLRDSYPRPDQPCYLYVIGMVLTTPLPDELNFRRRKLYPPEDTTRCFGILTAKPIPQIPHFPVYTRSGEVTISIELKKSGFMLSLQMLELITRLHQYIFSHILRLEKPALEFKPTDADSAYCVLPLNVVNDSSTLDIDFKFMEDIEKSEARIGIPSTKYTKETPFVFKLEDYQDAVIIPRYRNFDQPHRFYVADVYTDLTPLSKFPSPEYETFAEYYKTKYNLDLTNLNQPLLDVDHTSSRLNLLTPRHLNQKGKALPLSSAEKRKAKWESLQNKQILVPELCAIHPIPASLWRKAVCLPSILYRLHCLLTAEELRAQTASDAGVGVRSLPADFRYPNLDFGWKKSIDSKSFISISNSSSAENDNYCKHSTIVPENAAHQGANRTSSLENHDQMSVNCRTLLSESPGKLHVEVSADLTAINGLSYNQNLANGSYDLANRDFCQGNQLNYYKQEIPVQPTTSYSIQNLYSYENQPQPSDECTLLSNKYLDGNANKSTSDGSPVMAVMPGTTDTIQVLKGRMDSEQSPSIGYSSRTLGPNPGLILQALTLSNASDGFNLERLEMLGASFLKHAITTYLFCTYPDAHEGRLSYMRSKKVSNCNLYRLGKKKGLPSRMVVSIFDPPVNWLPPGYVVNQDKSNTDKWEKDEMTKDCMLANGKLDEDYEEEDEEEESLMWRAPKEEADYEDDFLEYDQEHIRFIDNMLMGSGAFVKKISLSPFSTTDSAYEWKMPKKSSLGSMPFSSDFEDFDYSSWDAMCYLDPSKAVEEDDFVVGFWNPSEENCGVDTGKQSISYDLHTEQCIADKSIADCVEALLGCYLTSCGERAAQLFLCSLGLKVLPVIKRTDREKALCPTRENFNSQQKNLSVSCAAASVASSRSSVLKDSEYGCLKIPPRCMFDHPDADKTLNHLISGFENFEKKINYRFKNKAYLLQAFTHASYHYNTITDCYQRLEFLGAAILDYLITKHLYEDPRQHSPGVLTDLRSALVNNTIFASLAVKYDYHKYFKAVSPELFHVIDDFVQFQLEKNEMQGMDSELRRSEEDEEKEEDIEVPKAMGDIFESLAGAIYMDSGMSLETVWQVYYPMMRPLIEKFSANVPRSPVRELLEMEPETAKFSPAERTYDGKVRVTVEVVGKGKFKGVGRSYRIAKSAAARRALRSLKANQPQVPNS

[3] = target: T1, ciDicer (catalytically inactive human …); assay: EMSA; EMSA: 50 mM Tris pH 7.6, 50 mM NaCl, 10% glycerol, 0.05% NP-40, 2 mM DTT, 4 °C, 30 min, 2 pM 32P-RNA; 4-15% native PAGE in Tris-glycine; RNA heated 95 °C and snap-cooled; no Mg2+ added to DB buffer; conditions: protein: recombinant, label: 5'-32P, hairpin

Sequence of ciDicer (catalytically inactive human Dicer) D1320A;D1709A (Homo sapiens) (Q9UPY3 whole entry D1320A/D1709A): as above

pre-let-7f-1 (7f1)
Kd [1]: 10 nM

B1: pre-let-7b mono-U (structured_RNA)
RNA: UGAGGUAGUAGGUUGUGUGGUUUCAGGGCAGUGAUGUUGCCCCUCGGAAGAUAACUAUACAACCUACUGCCUUCCU
modifications: 5'-monophosphate; 3'-OH; one extra 3' U
Kd [2]: ~19 nM

B2: pre-miR-98 (m98) (structured_RNA)
RNA: UGAGGUAGUAAGUUGUAUUGUUGUGGGGUAGGGAUAUUAGGCCCCAAUUAGAAGAUAACUAUACAACUUACUACUUUCC
modifications: 5'-monophosphate; 3'-OH
Kd ([3]; 1-nt 3' overhang (Group II)): 12 ± 7 nM

B3: pre-let-7a-2 (7a2) (structured_RNA)
RNA: UGAGGUAGUAGGUUGUAUAGUUUAGAAUUACAUCAAGGGAGAUAACUGUACAGCCUCCUAGCUUUCC
modifications: 5'-monophosphate; 3'-OH
Kd ([3]; 2-nt 3' overhang (Group I)): 12 ± 5 nM

B4: pre-let-7c (7c) (structured_RNA)
RNA: B3 RNA with A19G, A27G, U33C, A35C, A36U, A42U, G53A, C57U
modifications: 5'-monophosphate; 3'-OH
Kd ([3]; 2-nt 3' overhang (Group I)): 13 ± 4 nM

B5: pre-let-7b (7b) (structured_RNA)
RNA: UGAGGUAGUAGGUUGUGUGGUUUCAGGGCAGUGAUGUUGCCCCUCGGAAGAUAACUAUACAACCUACUGCCUUCC
modifications: 5'-monophosphate; 3'-OH
Kd ([3]; 1-nt 3' overhang (Group II)): 13 ± 1 nM

B6: pre-let-7e (7e) (structured_RNA)
RNA: UGAGGUAGGAGGUUGUAUAGUUGAGGAGGACACCCAAGGAGAUCACUAUACGGCCUCCUAGCUUUCC
modifications: 5'-monophosphate; 3'-OH
Kd ([3]; 2-nt 3' overhang (Group I)): 12 ± 2 nM

B7: pre-let-7a-1 (7a1) (structured_RNA)
RNA: UGAGGUAGUAGGUUGUAUAGUUUUAGGGUCACACCCACCACUGGGAGAUAACUAUACAAUCUACUGUCUUUC
modifications: 5'-monophosphate; 3'-OH
Kd ([3]; 1-nt 3' overhang (Group II)): 14 ± 3 nM

B8: pre-let-7a-3 (7a3) (structured_RNA)
RNA: UGAGGUAGUAGGUUGUAUAGUUUGGGGCUCUGCCCUGCUAUGGGAUAACUAUACAAUCUACUGUCUUUC
modifications: 5'-monophosphate; 3'-OH
Kd ([3]; 1-nt 3' overhang (Group II)): 16 ± 5 nM

B9: pre-let-7d (7d) (structured_RNA)
RNA: AGAGGUAGUAGGUUGCAUAGUUUUAGGGCAGGGAUUUUGCCCACAAGGAGGUAACUAUACGACCUGCUGCCUUUC
modifications: 5'-monophosphate; 3'-OH
Kd ([3]; 1-nt 3' overhang (Group II)): 16 ± 3 nM

B10: pre-let-7d mono-U (structured_RNA)
RNA: AGAGGUAGUAGGUUGCAUAGUUUUAGGGCAGGGAUUUUGCCCACAAGGAGGUAACUAUACGACCUGCUGCCUUUCU
modifications: 5'-monophosphate; 3'-OH; one extra 3' U
Kd [2]: ~19 nM

B11: pre-miR-202 (m202) (structured_RNA)
RNA: UUCCUAUGCAUAUACUUCUUUGAGGAUCUGGCCUAAAGAGGUAUAGGGCAUGGGAAAA
modifications: 5'-monophosphate; 3'-OH
Kd ([3]; 14-nt apical loop, 2-nt 3' overhang (Group I)): 7 ± 2 nM

B12: pre-let-7g mono-U (structured_RNA)
RNA: UGAGGUAGUAGUUUGUACAGUUUGAGGGUCUAUGAUACCACCCGGUACAGGAGAUAACUGUACAGGCCACUGCCUUGCU
modifications: 5'-monophosphate; 3'-OH; one extra 3' U
Kd [2]: ~19 nM

B13: pre-let-7f-2 (7f2) (structured_RNA)
RNA: UGAGGUAGUAGAUUGUAUAGUUUUAGGGUCAUACCCCAUCUUGGAGAUAACUAUACAGUCUACUGUCUUUC
modifications: 5'-monophosphate; 3'-OH
Kd ([3]; 1-nt 3' overhang (Group II)): 17 ± 4 nM

B14: pre-let-7i (7i) (structured_RNA)
RNA: UGAGGUAGUAGUUUGUGCUGUUGGUCGGGUUGUGACAUUGCCCGCUGUGGAGAUAACUGCGCAAGCUACUGCCUUGC
modifications: 5'-monophosphate; 3'-OH
Kd ([3]; 1-nt 3' overhang (Group II)): 17 ± 5 nM

B15: pre-miR-98 mono-U (structured_RNA)
RNA: UGAGGUAGUAAGUUGUAUUGUUGUGGGGUAGGGAUAUUAGGCCCCAAUUAGAAGAUAACUAUACAACUUACUACUUUCCU
modifications: 5'-monophosphate; 3'-OH; one extra 3' U
Kd [2]: ~19 nM

B16: pre-let-7g (7g) (structured_RNA)
RNA: UGAGGUAGUAGUUUGUACAGUUUGAGGGUCUAUGAUACCACCCGGUACAGGAGAUAACUGUACAGGCCACUGCCUUGC
modifications: 5'-monophosphate; 3'-OH
Kd ([3]; 1-nt 3' overhang (Group II)): 12 ± 2 nM

B17: pre-let-7a-1 mono-U (structured_RNA)
RNA: UGAGGUAGUAGGUUGUAUAGUUUUAGGGUCACACCCACCACUGGGAGAUAACUAUACAAUCUACUGUCUUUCU
modifications: 5'-monophosphate; 3'-OH; one extra 3' U
Kd [2]: ~19 nM

From publication PMC10806991, “Substrate promiscuity of Dicer toward precursors of the let-7 family and their 3′-end modifications”
